The results in this text go back to US20190218277A1 (Chugai, published 2019).

In test [1] the target is T1, Recombinant soluble E protein (0.8E-His) from DENV-2 (DENV-2, UniProt P14340 281-675).
T1 construct: also called DENV-2 E protein; DV2
In words: SPR, Biacore T200.

Test [2] has as its target T2, Recombinant soluble E protein (0.8E-His) from DENV-4 (DENV-4, UniProt P09866 280-674).
T2 construct: also called DENV-4 E protein; DV4
In words: SPR, Biacore T200.

For test [3], the target named is T3, Recombinant soluble E protein (0.8E-His) from DENV-3 (DENV-3, UniProt P27915 281-673).
T3 construct: also called DENV-3 E protein; DV3

Test [4] concerns the target T4, Recombinant soluble E protein (0.8E-His) from DENV-1 (DENV-1, UniProt P27909 281-675).
T4 construct: also called DENV-1 E protein; DV1

B1: DG_3CH1000-SG182/3CL666-SK1 (antibody, V domains shown)
VH: QVQLVQSGPDVEKPGASVKVSCKASGYTFTSYYMHWVRQAPGQGLEWMGVINPRGGSRRSAQKFQGRITMTRDTSTSTVYMELSSLRSEDTAVYYCARGGRALFYDSYTTPFDGGSWWFDPWGQGSLVTVSS
VL: DIQLTQSPSSLSASVGDRVTITCQASQEIRKYLNWYQQKPGKAPKLLIYDASNLKTGVPSRFSGSGSGTDFTLTISSLQPEDVATYYCQQFDDLPITFGQGTRLQIKR
As usually defined, the Kd is a measure of binding affinity in units of concentration. On to B1, for which the binding result in test [1] and in test [2] was “binds” throughout. The Kd in test [3] came to 2.5 pM; in test [4], 1660 pM.

B2: DG_3CH1000-SG1095/3CL012-SK1 (antibody, human IgG1, kappa, L234A L235A)
heavy: QVQLVQSGPDVEKPGASVKVSCKASGYTFTSYYMHWVRQAPGQGLEWMGVINPRGGSRRSAQKFQGRITMTRDTSTSTVYMELSSLRSEDTAVYYCARGGRALFYDSYTTPFDGGSWWFDPWGQGSLVTVSSASTKGPSVFPLAPSSKSTSGGTAALGCLVKDYFPEPVTVSWNSGALTSGVHTFPAVLQSSGLYSLSSVVTVPSSSLGTQTYICNVNHKPSNTKVDKRVEPKSCDKTHTCPPCPAPEAAGGPSVFLFPPKPKDTLMISRTPEVTCVVVDVSHEDPEVKFNWYVDGVEVHNAKTKPREEQYNSTYRVVSVLTVLHQDWLNGKEYKCKVSNAALPAPISKTISKAKGQPREPQVYTLPPSREEMTKNQVSLTCLVKGFYPSDIAVEWESNGQPENNYKTTPPVLDSDGSFFLYSKLTVDKSRWQQGNVFSCSVMHEALHNHYTQKSLSLSP
light: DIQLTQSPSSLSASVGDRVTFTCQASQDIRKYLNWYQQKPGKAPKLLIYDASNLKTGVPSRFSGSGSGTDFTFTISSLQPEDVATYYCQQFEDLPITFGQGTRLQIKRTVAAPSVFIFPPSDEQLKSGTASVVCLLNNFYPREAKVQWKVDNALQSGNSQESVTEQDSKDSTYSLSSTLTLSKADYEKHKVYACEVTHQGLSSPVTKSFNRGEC
As for B2, the binding result in test [1] and in test [2] was “binds” each time. The Kd was 0.959 pM in test [3] and 1830 pM in test [4].

B3: DG_3CH1047-SG1095/3CL119-SK1 (antibody)
heavy: QVQLVQSGPDVEKPGASVKVSCKASGYTFTSYYMHWVRQAPGQGLEWMGVINPRGGSRRSAQKFQGRITMTRDTSTSTVYMELSSLRSEDTAVYYCARGGEALFYDSYTTPFDGGSWWFDPWGQGSLVTVSSASTKGPSVFPLAPSSKSTSGGTAALGCLVKDYFPEPVTVSWNSGALTSGVHTFPAVLQSSGLYSLSSVVTVPSSSLGTQTYICNVNHKPSNTKVDKRVEPKSCDKTHTCPPCPAPEAAGGPSVFLFPPKPKDTLMISRTPEVTCVVVDVSHEDPEVKFNWYVDGVEVHNAKTKPREEQYNSTYRVVSVLTVLHQDWLNGKEYKCKVSNAALPAPISKTISKAKGQPREPQVYTLPPSREEMTKNQVSLTCLVKGFYPSDIAVEWESNGQPENNYKTTPPVLDSDGSFFLYSKLTVDKSRWQQGNVFSCSVMHEALHNHYTQKSLSLSP
light: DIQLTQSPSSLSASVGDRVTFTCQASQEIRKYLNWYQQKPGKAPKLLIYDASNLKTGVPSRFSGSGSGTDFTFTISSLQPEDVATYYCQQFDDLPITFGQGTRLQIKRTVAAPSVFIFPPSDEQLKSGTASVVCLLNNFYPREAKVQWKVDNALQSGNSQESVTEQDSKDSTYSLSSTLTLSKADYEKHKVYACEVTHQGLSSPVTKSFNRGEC
For the molecule B3, the binding result in test [1] and in test [2] was “binds” throughout. In addition, the Kd in test [3] amounted to 3.79 pM; in test [4], 2230 pM.

B4: DG_3CH1047-SG182/3CL666-SK1 (antibody, V domains shown)
VH: QVQLVQSGPDVEKPGASVKVSCKASGYTFTSYYMHWVRQAPGQGLEWMGVINPRGGSRRSAQKFQGRITMTRDTSTSTVYMELSSLRSEDTAVYYCARGGEALFYDSYTTPFDGGSWWFDPWGQGSLVTVSS
VL: DIQLTQSPSSLSASVGDRVTITCQASQEIRKYLNWYQQKPGKAPKLLIYDASNLKTGVPSRFSGSGSGTDFTLTISSLQPEDVATYYCQQFDDLPITFGQGTRLQIKR
For B4, the binding result in test [1] and in test [2] was “binds” each time. The Kd was 42 pM in test [3] and 982 pM in test [4].

B5: DG_3CH1047-SG1095/3CL012-SK1 (antibody, human IgG1, kappa, L234A L235A)
heavy: QVQLVQSGPDVEKPGASVKVSCKASGYTFTSYYMHWVRQAPGQGLEWMGVINPRGGSRRSAQKFQGRITMTRDTSTSTVYMELSSLRSEDTAVYYCARGGEALFYDSYTTPFDGGSWWFDPWGQGSLVTVSSASTKGPSVFPLAPSSKSTSGGTAALGCLVKDYFPEPVTVSWNSGALTSGVHTFPAVLQSSGLYSLSSVVTVPSSSLGTQTYICNVNHKPSNTKVDKRVEPKSCDKTHTCPPCPAPEAAGGPSVFLFPPKPKDTLMISRTPEVTCVVVDVSHEDPEVKFNWYVDGVEVHNAKTKPREEQYNSTYRVVSVLTVLHQDWLNGKEYKCKVSNAALPAPISKTISKAKGQPREPQVYTLPPSREEMTKNQVSLTCLVKGFYPSDIAVEWESNGQPENNYKTTPPVLDSDGSFFLYSKLTVDKSRWQQGNVFSCSVMHEALHNHYTQKSLSLSP
light: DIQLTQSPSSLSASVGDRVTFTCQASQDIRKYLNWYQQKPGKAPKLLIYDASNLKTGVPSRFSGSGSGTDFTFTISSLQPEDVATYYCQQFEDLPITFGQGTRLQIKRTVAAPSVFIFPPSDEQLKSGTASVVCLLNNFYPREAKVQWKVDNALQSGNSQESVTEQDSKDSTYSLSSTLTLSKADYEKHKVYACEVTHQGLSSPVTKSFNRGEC
On to B5, for which the binding result in test [1] and in test [2] was “binds” in each case. For the same molecule, the Kd in test [3] worked out at 3.17 pM; in test [4], 2210 pM.

B6: DG_3CH1000-SG182/3CL668-SK1 (antibody, V domains shown)
VH: QVQLVQSGPDVEKPGASVKVSCKASGYTFTSYYMHWVRQAPGQGLEWMGVINPRGGSRRSAQKFQGRITMTRDTSTSTVYMELSSLRSEDTAVYYCARGGRALFYDSYTTPFDGGSWWFDPWGQGSLVTVSS
VL: DIQLTQSPSSLSASVGDRVTITCQASQDIRKYLNWYQQKPGKAPKLLIYDASNLKTGVPSRFSGSGSGTDFTLTISSLQPEDVATYYCQQFEDLPITFGQGTRLQIKR
Turning to B6, the binding result in test [1] and in test [2] was “binds” throughout. Further, the Kd in test [3] came out at 0.8 pM; in test [4], 1680 pM.

B7: DG_3CH1000-SG1095/3CL-SK1 (antibody, human IgG1, kappa, L234A L235A)
heavy: QVQLVQSGPDVEKPGASVKVSCKASGYTFTSYYMHWVRQAPGQGLEWMGVINPRGGSRRSAQKFQGRITMTRDTSTSTVYMELSSLRSEDTAVYYCARGGRALFYDSYTTPFDGGSWWFDPWGQGSLVTVSSASTKGPSVFPLAPSSKSTSGGTAALGCLVKDYFPEPVTVSWNSGALTSGVHTFPAVLQSSGLYSLSSVVTVPSSSLGTQTYICNVNHKPSNTKVDKRVEPKSCDKTHTCPPCPAPEAAGGPSVFLFPPKPKDTLMISRTPEVTCVVVDVSHEDPEVKFNWYVDGVEVHNAKTKPREEQYNSTYRVVSVLTVLHQDWLNGKEYKCKVSNAALPAPISKTISKAKGQPREPQVYTLPPSREEMTKNQVSLTCLVKGFYPSDIAVEWESNGQPENNYKTTPPVLDSDGSFFLYSKLTVDKSRWQQGNVFSCSVMHEALHNHYTQKSLSLSP
light: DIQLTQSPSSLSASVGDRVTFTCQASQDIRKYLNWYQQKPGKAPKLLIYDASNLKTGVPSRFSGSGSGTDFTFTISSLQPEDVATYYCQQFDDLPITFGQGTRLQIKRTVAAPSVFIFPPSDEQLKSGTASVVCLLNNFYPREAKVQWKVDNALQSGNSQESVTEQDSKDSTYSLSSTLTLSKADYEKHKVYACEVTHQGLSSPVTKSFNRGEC
As to B7, the binding result in test [1] and in test [2] was “binds” in each case. The equilibrium dissociation constant (Kd) worked out at 16.8 pM in test [3] and 1800 pM in test [4].

B8: DG_3CH1046-SG182/3CL633-SK1 (antibody, V domains shown)
VH: QVQLVQSGAEVKKPGASVKVSCKASGYTFTSYYMHWVRQAPGQGLEWMGVINPRGGSRRSAQKFQGRVTMTRDTSTSTVYMELSSLRSEDTAVYYCARGGRALFYDSYTTPFDGGSWWFDPWGQGSLVTVSS
VL: DIQLTQSPSSLSASVGDRVTITCQASQDIRKYLNWYQQKPGKAPKLLIYDASNLKTGVPSRFSGSGSGTDFTLTISSLQPEDVATYYCQQFDDLPITFGQGTRLQIKR
For B8, the binding result in test [1] and in test [2] was “binds” each time. Further, the Kd in test [3] turned out to be 0.201 pM; in test [4], 1640 pM.

B9: DG_3CH1046-SG182/3CL012-SK1 (antibody, V domains shown)
VH: QVQLVQSGAEVKKPGASVKVSCKASGYTFTSYYMHWVRQAPGQGLEWMGVINPRGGSRRSAQKFQGRVTMTRDTSTSTVYMELSSLRSEDTAVYYCARGGRALFYDSYTTPFDGGSWWFDPWGQGSLVTVSS
VL: DIQLTQSPSSLSASVGDRVTFTCQASQDIRKYLNWYQQKPGKAPKLLIYDASNLKTGVPSRFSGSGSGTDFTFTISSLQPEDVATYYCQQFEDLPITFGQGTRLQIKR
As to B9, the binding result in test [1] and in test [2] was “binds” in each case. Moreover, the dissociation constant (Kd) is 0.145 pM in test [3] and 1920 pM in test [4].

B10: DG_3CH1046-SG182/3CL-SK1 (antibody, V domains shown)
VH: QVQLVQSGAEVKKPGASVKVSCKASGYTFTSYYMHWVRQAPGQGLEWMGVINPRGGSRRSAQKFQGRVTMTRDTSTSTVYMELSSLRSEDTAVYYCARGGRALFYDSYTTPFDGGSWWFDPWGQGSLVTVSS
VL: DIQLTQSPSSLSASVGDRVTFTCQASQDIRKYLNWYQQKPGKAPKLLIYDASNLKTGVPSRFSGSGSGTDFTFTISSLQPEDVATYYCQQFDDLPITFGQGTRLQIKR
As for B10, the binding result in test [1] and in test [2] was “binds” each time. Moreover, the equilibrium dissociation constant (Kd) in test [3] was 0.213 pM; in test [4], 1910 pM.

B11: DG_3CH1047-SG182/3CL633-SK1 (antibody, V domains shown)
VH: QVQLVQSGPDVEKPGASVKVSCKASGYTFTSYYMHWVRQAPGQGLEWMGVINPRGGSRRSAQKFQGRITMTRDTSTSTVYMELSSLRSEDTAVYYCARGGEALFYDSYTTPFDGGSWWFDPWGQGSLVTVSS
VL: DIQLTQSPSSLSASVGDRVTITCQASQDIRKYLNWYQQKPGKAPKLLIYDASNLKTGVPSRFSGSGSGTDFTLTISSLQPEDVATYYCQQFDDLPITFGQGTRLQIKR
Regarding B11, the binding result in test [1] and in test [2] was “binds” each time. The dissociation constant Kd stood at 0.437 pM in test [3] and 956 pM in test [4].

B12: DG_3CH1000-SG1095/3CL119-SK1 (antibody)
heavy: QVQLVQSGPDVEKPGASVKVSCKASGYTFTSYYMHWVRQAPGQGLEWMGVINPRGGSRRSAQKFQGRITMTRDTSTSTVYMELSSLRSEDTAVYYCARGGRALFYDSYTTPFDGGSWWFDPWGQGSLVTVSSASTKGPSVFPLAPSSKSTSGGTAALGCLVKDYFPEPVTVSWNSGALTSGVHTFPAVLQSSGLYSLSSVVTVPSSSLGTQTYICNVNHKPSNTKVDKRVEPKSCDKTHTCPPCPAPEAAGGPSVFLFPPKPKDTLMISRTPEVTCVVVDVSHEDPEVKFNWYVDGVEVHNAKTKPREEQYNSTYRVVSVLTVLHQDWLNGKEYKCKVSNAALPAPISKTISKAKGQPREPQVYTLPPSREEMTKNQVSLTCLVKGFYPSDIAVEWESNGQPENNYKTTPPVLDSDGSFFLYSKLTVDKSRWQQGNVFSCSVMHEALHNHYTQKSLSLSP
light: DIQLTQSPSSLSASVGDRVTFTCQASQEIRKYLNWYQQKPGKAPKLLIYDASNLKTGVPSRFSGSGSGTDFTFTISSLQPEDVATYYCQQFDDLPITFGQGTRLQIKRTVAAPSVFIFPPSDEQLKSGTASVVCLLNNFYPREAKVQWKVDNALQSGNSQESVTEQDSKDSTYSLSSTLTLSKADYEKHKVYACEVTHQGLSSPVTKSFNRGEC
As to B12, the binding result in test [1] and in test [2] was “binds” each time. In addition, the dissociation constant (Kd) in test [3] is 0.0428 pM; in test [4], 1920 pM.

B13: DG_3CH1046-SG182/3CL119-SK1 (antibody, V domains shown)
VH: QVQLVQSGAEVKKPGASVKVSCKASGYTFTSYYMHWVRQAPGQGLEWMGVINPRGGSRRSAQKFQGRVTMTRDTSTSTVYMELSSLRSEDTAVYYCARGGRALFYDSYTTPFDGGSWWFDPWGQGSLVTVSS
VL: DIQLTQSPSSLSASVGDRVTFTCQASQEIRKYLNWYQQKPGKAPKLLIYDASNLKTGVPSRFSGSGSGTDFTFTISSLQPEDVATYYCQQFDDLPITFGQGTRLQIKR
Take B13: the binding result in test [1] and in test [2] was “binds” throughout. The equilibrium dissociation constant (Kd) worked out at 2.73 pM in test [3] and 1530 pM in test [4].
